Patent publication US20220380463A1 (Adimab, published 2022)
Where a chain is given by its changes, count along the chain named.

B1: SAD10320_P03_F09 (ADI-48656) (antibody, V domains shown)
VH: QVQLVQSGAEVKKPGASVKVSCKASGFNIKDYYMHWVRQAPGQRLEWMGWIDLENANTIYDAKFQGRVTITRDTSASTAYMELSSLRSEDTAVYYCARDAYGHDFYDVWGQGTLVTVSS
VL: DIVMTQSPDSLAVSLGERATINCKSSQSLLNARTGKNYLAWYQQKPGQPPKLLIYWASTRESGVPDRFSGSGSGTDFTLTISSLQAEDVAVYYCKQSYHRRTFGGGTKVEIK
notes: IgG; also called Ab101
B2: SAD10319_P02_A05 (ADI-48629) (antibody, V domains shown)
VH: QVQLVQSGAEVKKPGASVKVSCKASGYTFDSYAMHWVRQAPGQRLEWMGWINPNTGATTYSQKFQGRVTITRDTSASTAYMELSSLRSEDTAVYYCARDHYGHYFYDVWGQGTLVTVSS
VL: B1 VL with H99S
notes: IgG; also called Ab255
B3: SAD10319_P01_C01 (ADI-48621) (antibody, V domains shown)
VH: B2 VH with D30T, S31D, A33D, N52D, P53A, N54G, A57L, T59K
VL: B1 VL with H99S
notes: IgG; also called Ab230
B4: SAD10319_P02_E05 (ADI-48630) (antibody, V domains shown)
VH: B2 VH with A33I, N52D, P53A, N54G, T59V, H100A, V108H
VL: B1 VL with H99S
notes: IgG; also called Ab4
B5: SAD10319_P01_H02 (ADI-48625) (antibody, V domains shown)
VH: B2 VH with D30T, S31D, N54S, T59V, H100A, G102H
VL: B1 VL with H99S
notes: IgG; also called Ab242
B6: SAD10318_P03_E09 (ADI-48611) (antibody, V domains shown)
VH: QVQLVQSGAEVKKPGASVKVSCKASGFNIKDYYMHWVRQAPGQRLEWMGWIDLENANTIYDAKFQGRVTITRDTSASTAYMELSSLRSEDTAVYYCARDAYGHYHYDVWGQGTLVTVS
VL: B1 VL with K36H, Y38H, R100H
notes: IgG; also called Ab207
B7: SAD10319_P01_H01 (ADI-48623) (antibody, V domains shown)
VH: B2 VH with S31D, N52D, P53A, N54G, A57D, T59K, G102H, H103R
VL: B1 VL with H99S
notes: IgG; also called Ab235
B8: SAD10319_P03_E07 (ADI-48635) (antibody, V domains shown)
VH: B2 VH with D30E, A33D, N52D, P53A, N54G, H100A, G102H
VL: B1 VL with H99S
notes: IgG; also called Ab17
B9: SAD10318_P02_C05 (ADI-48597) (antibody, V domains shown)
VH: B1 VH with Y101H, G102H, H103R, D104Y
VL: DIVMTQSPDSLAVSLGERATINCKSSQSLLNARTGHNHLAWYQQKPGQPPKLLIYWASTRESGVPDRFSGSGSGTDFTLTISSLQAEDVAVYYCKQSHSHRTFGGGTKVEI
notes: IgG; also called Ab180
B10: SAD10319_P01_A01 (ADI-48619) (antibody, V domains shown)
VH: B2 VH with D30A, N54D, A57N, T59V, H100A, G102H
VL: B1 VL with H99S
notes: IgG; also called Ab229
B11: SAD10319_P01_F02 (ADI-48624) (antibody, V domains shown)
VH: B2 VH with D30E, A33D, N52D, P53A, N54G, A57N, T59K, R72A, T74E, A76T
VL: B1 VL with H99S
notes: IgG; also called Ab241
B12: SAD10319_P02_H06 (ADI-48633) (antibody, V domains shown)
VH: QVQLVQSGAEVKKPGASVKVSCKASGYTFTAYVMHWVRQAPGQRLEWMGSIDAGTGNTKYSQKFQGRVTITRDTSASTAYMELSSLRSEDTAVYYCARDAYGHYFYDHWGQGTLVTVSS
VL: B1 VL with H99S
notes: IgG; also called Ab16
B13: SAD10319_P02_G06 (ADI-48632) (antibody, V domains shown)
VH: B2 VH with D30T, N54D, T59V, H100A, G102H
VL: B1 VL with H99S
notes: IgG; also called Ab15
B14: SAD10319_P02_D06 (ADI-48631) (antibody, V domains shown)
VH: B2 VH with D30T, S31D, P53A, N54G, T59I, H100A, G102H
VL: B1 VL with H99S
notes: IgG; also called Ab11
B15: SAD10319_P01_F03 (ADI-48627) (antibody, V domains shown)
VH: B2 VH with D30E, A33D, P53A, N54G, T59V, H100A, G102H
VL: B1 VL with H99S
notes: IgG; also called Ab246
B16: SAD10319_P01_C03 (ADI-48626) (antibody, V domains shown)
VH: B2 VH with D30T, S31D, A33D, N52D, N54Y, T59K, H100A
VL: B1 VL with H99S
notes: IgG; also called Ab244
B17: SAD10319_P03_C07 (ADI-48634) (antibody, V domains shown)
VH: B2 VH with D30E, A33D, N52D, P53A, N54G, H100A, G102H
VL: B1 VL with H99S
notes: IgG; also called Ab17
B18: SAD10320_P04_E10 (ADI-48657) (antibody, V domains shown)
VH: B1 VH with L45P
VL: B1 VL with H99S
notes: IgG; also called Ab106
B19: SAD10320_P02_D05 (ADI-48650) (antibody, V domains shown)
VH: B1 VH with Y101T, G102H, H103R, D104Y
VL: B9 VL with H36K, H38Y, S99T, H100R
notes: IgG; also called Ab77
B20: SAD10320_P04_G10 (ADI-48658) (antibody, V domains shown)
VH: B1 VH
VL: B1 VL with H99S
notes: IgG; also called Ab108
B21: SAD10320_P04_H11 (ADI-48662) (antibody, V domains shown)
VH: B1 VH with D104V
VL: B1 VL with H99Q, R100H
notes: IgG; also called Ab116

target: T1, human CD3 on CD3+ Jurkat cells (human, UniProt P07766 23-207); experiment: flow cytometry, 100 nM IgG on CD3+ Jurkat cells, pH 6.0
T1 construct: whole, on cells; Native CD3 complex on cells; the other CD3 chains are not specified for this assay; also called Human CD3+ Jurkat
In short: (§1)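 Jurkat cells incubated 20 min on ice with 100 nM yeast-produced IgG in PBS + 0.1% BSA at pH 6.0 or pH 7.4, with all washes and staining at the same pH. Bound antibody detected with anti-human IgG-RPE, dead cells excluded by propidium iodide; MFI measured by flow cytometry.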

T1 sequence (P07766 23-207): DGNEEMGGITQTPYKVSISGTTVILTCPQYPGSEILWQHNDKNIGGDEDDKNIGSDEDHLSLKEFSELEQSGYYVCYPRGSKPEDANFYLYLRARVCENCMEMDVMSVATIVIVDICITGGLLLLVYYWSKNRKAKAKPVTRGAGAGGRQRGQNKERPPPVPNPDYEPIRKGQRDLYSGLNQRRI

Row | Binder | MFI pH 6.0 [MFI]
1 | B1 | 185
2 | B2 | 1780
3 | B3 | 731
4 | B4 | 5540
5 | B5 | 1730
6 | B6 | 123
7 | B7 | 1760
8 | B8 | 623
9 | B9 | 1320
10 | B10 | 1750
11 | B11 | 895
12 | B12 | 2790
13 | B13 | 1620
14 | B14 | 3100
15 | B15 | 335
16 | B16 | 3160
17 | B17 | 651
18 | B18 | 786
19 | B19 | 6010
20 | B20 | 113
21 | B21 | 81

target: T1, human CD3 on CD3+ Jurkat cells; experiment: flow cytometry, 100 nM IgG on CD3+ Jurkat cells, pH 7.4
In short: as §1

Row | Binder | MFI pH 7.4 [MFI]
22 | B1 | 38
23 | B2 | 499
24 | B3 | 49
25 | B4 | 5060
26 | B5 | 128
27 | B6 | 47
28 | B7 | 147
29 | B8 | 54
30 | B9 | 61
31 | B10 | 129
32 | B11 | 58
33 | B12 | 1450
34 | B13 | 107
35 | B14 | 232
36 | B15 | 45
37 | B16 | 369
38 | B17 | 44
39 | B18 | 67
40 | B19 | 5430
41 | B20 | 316
42 | B21 | 44

target: T1, human CD3 on CD3+ Jurkat cells; experiment: flow cytometry on CD3+ Jurkat cells, ratio of MFI at pH 6.0 to pH 7.4
In short: as §1

Row | Binder | MFI pH 6.0/MFI pH 7.4
43 | B1 | 4.9
44 | B2 | 3.6
45 | B3 | 14.8
46 | B4 | 1.1
47 | B5 | 13.6
48 | B6 | 2.6
49 | B7 | 12
50 | B8 | 11.6
51 | B9 | 21.7
52 | B10 | 13.5
53 | B11 | 15.4
54 | B12 | 1.9
55 | B13 | 15.1
56 | B14 | 13.4
57 | B15 | 7.4
58 | B16 | 8.6
59 | B17 | 14.7
60 | B18 | 11.7
61 | B19 | 1.1
62 | B20 | 0.4
63 | B21 | 1.8
